Source: the supplement of paper PMC12636428

Test system: Saccharomyces cerevisiae
Assay: transcriptional activation domain activity (GFP:mCherry ratio, weighted mean of sorted bins, harmonized to initial dataset scale) (arbitrary fluorescence ratio units); higher = stronger transcriptional activation
Conditions: beta-estradiol 1 µM; induction time 4 h
Outline: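 Yeast diploids with a GFP reporter received barcoded protein tiles, fused to an estradiol-inducible synthetic transcription factor, at the URA3 locus. Cultures were diluted 1:5 into SC holding 1 uM beta-estradiol, incubated 4 hours at 30 °C, sorted into 8 bins on GFP:mCherry ratio, and sequenced for barcodes, with tiles under 50 reads discarded. Activation activity values come from the read-weighted mean of bin median fluorescence, averaged across barcodes and linearly placed on the initial dataset scale.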

## IYGSTAKPFPYTEGYHFLLKFVTEKFEKAEVLRIVRALGLFRPSLIALQMPLT
  transcriptional activation domain activity: 42800

## EWFVMFCMMLLLLFWFFPISALASLLSYEEIKKIMPWLGRLIDANENIRAIVQ
  transcriptional activation domain activity: 62900

## TTGCREGFDWTPLSSVRYGGICGGRLFSICHTTFEGLAIIGMPNILICNYNVT
  transcriptional activation domain activity: 43300

## MLYINHFLHSPRGLVEQAKSLFFLYLSFFFLFFFFPFISFHFSFNVPFSLNCI
  transcriptional activation domain activity: 50900

## CHVLRMYTPYWILFPNDLIQLLKVIPALRCLHILSKGIRIIRWKPLPYLLWED
  transcriptional activation domain activity: 51800

## QLVIAVLLLHASAMFTKRVEIPQLKLETAGKLFPCVFVNIVGLVFNTLCLRDV
  transcriptional activation domain activity: 43300

## GDAPASFHSFCVVRVFMDVCWLGKRLCLKVLNMDPTCPWLMLLLLKATRLHLS
  transcriptional activation domain activity: 65300

## MQTSLLPLFSFLSFLFLLVFLLLLSLYLAFSHVAFSFLSLFFCYISFFLFYSF
  transcriptional activation domain activity: 26200

## MFCLRSWIPILFFLTNASPIYLLLFISATYTLNRPCVYCSLLLGILVLALFDF
  transcriptional activation domain activity: 28600

## DGSIMEINGIPLSMLGETGSVKFQSLFANTSNSNDYNNNRTLLDASNDISIPS
  transcriptional activation domain activity: 61900

## ETGSEWREGSSDGFRSVKTVLLGVWAEYGGLRRNEICDTLRRLTLSSLGKINP
  transcriptional activation domain activity: 53800

## EKKRLLREKNKKRKRGEEVSDDEEEQKEEAAKKAKSEKEDSKHGIWVGNLHFS
  transcriptional activation domain activity: 50100

## MTLTFWFFLPLLDILSGLKFEFLPMLVFYFYFFPFASFCRFEALDIWTWILII
  transcriptional activation domain activity: 48100

## FPSLRLPFCVCLWFRLFVFFFHIGSFVLLVRLFFFFFNFGLFFLFFFLFSFFS
  transcriptional activation domain activity: 27500

## KGFDSQCIEEWDPILFSAAEIWPTKGKPIALVEMDPIDFDFDVDNWDYVTRHL
  transcriptional activation domain activity: 174000

## VSTMLCYLNYCRTDVTVPTNSNPIFKLDNSLFLRLILLCNINLLLLLPFGLYL
  transcriptional activation domain activity: 47100

## HSMPSLATICGVCFIVDVYCIMRISLLHSYWIPMRRTLPLLAFPVVSFIFLFF
  transcriptional activation domain activity: 79400

## MHGTGVFFGCLGIHIFFFLSSLLFHVDIFVIRDIFFNFLLFFFIFFLRILYSM
  transcriptional activation domain activity: 42700

## HFPKRSFRHWVGLMFFSFLTCCTLLLQFRAAVTLTVNSHLPWITRSGLWYLVL
  transcriptional activation domain activity: 68800

## PIDPETGRPKKGRPRKSVDAASAVGTSSTGEPQAKRARGRPKKNAGAVAATAV
  transcriptional activation domain activity: 51100

## MRWNRIIIGSHVSVLWMIGYVFTLLLTLVPSPLLEFRYFILPFIFFCIHLPPP
  transcriptional activation domain activity: 48100

## GHSGNNAHSHLQKPHGHAGKTRSEVGGRSGEGGEGNGGAGGGELGKGVAAGRL
  transcriptional activation domain activity: 13700

## TRNSCVKIEKEDSLTNLNEIDFTNMFCNDNFIQNYNQGLMELLTEPTPGPSSS
  transcriptional activation domain activity: 64700

## GVFCLALWVPATGFELVSFFALLVGAIFGVFWMVAGLKNLQSSLSISWLVIAL
  transcriptional activation domain activity: 65200

## RKRKASASPERDEEGKSGPKGRGRTARRGSKAGRGKSGGTQRGGRKGASEREV
  transcriptional activation domain activity: 38500

## NTWLLFRQVVDVILLNDFVAYCMFAFSCFRVPEGLSLAVHIMRWVAGIALIAF
  transcriptional activation domain activity: 56200

## RSSKPSSRFLVLTKQKVYILVTRMVQNAPQTTIERSVGISSISSASVSTLQDD
  transcriptional activation domain activity: 29600

## LIAGWCCLLSASCGIFYCIFRAIAIYVPEFNCRVVLWCFAILKVISILCHAAV
  transcriptional activation domain activity: 32700

## MNQTSRFFLLFFFFFFFYFFPFSHLLPSFLLLFLSFYFSPSYLLLCLFSLIFY
  transcriptional activation domain activity: 42600

## IMYTSHHDPKHCFEETRDGTLKVHVIGDWLPRGIFGKMYILFAILRQLVLVLW
  transcriptional activation domain activity: 74900
